Experimental findings from US7897729 are described below.

The target in this experiment is FcγRIII (CD16) (human) (UniProt P08637). Kind of experiment: cell-based or functional assay.
Chain of FcγRIII (CD16) (human) (P08637 17-254): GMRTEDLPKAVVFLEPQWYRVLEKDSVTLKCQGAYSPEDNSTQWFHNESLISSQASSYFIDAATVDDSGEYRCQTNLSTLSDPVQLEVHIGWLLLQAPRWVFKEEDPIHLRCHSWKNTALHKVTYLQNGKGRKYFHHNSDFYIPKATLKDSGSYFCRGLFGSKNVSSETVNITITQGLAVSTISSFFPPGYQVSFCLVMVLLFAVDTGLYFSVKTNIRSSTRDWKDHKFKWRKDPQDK

Consider anti-CD16 mAb 3G8 (antibody), for which the IFN-γ secretion from PBMC, immobilized anti-CD16 mAb (10 µg/ml) + IL-2 worked out at 9.85 ng/mL; the TNF-α secretion from PBMC, immobilized anti-CD16 mAb (10 µg/ml) + IL-2 stood at 3.32 ng/mL; the proliferative response of PBMC ([3H]thymidine), IL-2 and immobilized anti-CD16 mAb came to 15500 CPM; the proliferative response of PBMC ([3H]thymidine), immobilized anti-CD16 mAb alone, no IL-2 came out at 592 CPM.

As for heat aggregated IgG (AIG), the IFN-γ secretion from PBMC, aggregated IgG (40 µg/ml) + IL-2 turned out to be 13 ng/mL; the TNF-α secretion from PBMC, aggregated IgG (40 µg/ml) + IL-2 came out at 2.46 ng/mL; the fold induction of PBMC proliferation over IL-2, 125 µg/mL of AIG amounted to 16 fold; the proliferative response of PBMC, 125 µg/mL of AIG and IL-2 worked out at 17400 CPM.
